This is an account of results in article PMC7360120.

In this assay the target is HA-ELKS1αB.

“GST-Rab6B Q72L (from UniProt P61294 1-208) (natural protein)” displayed a fraction of synapses with mito-Rab6-tagged mitochondria in neurons co-expressing mito-Rab6BQL and HA-ELKS1αB, compared to inactive Rab6B (mito-Rab6BTN) or HA-ELKS1^∆955-971 of 2 fold.
